Measured values: publication PMC8602290, “G3BP1 inhibits Cul3^SPOP to amplify AR signaling and promote prostate cancer” (Nature Communications, 2021)

T1: Myc-DEK protein (affinity-purified) (UniProt P35659 1-375)
T1 construct: DEK, recombinant Myc-tagged protein
T1 sequence (looked up): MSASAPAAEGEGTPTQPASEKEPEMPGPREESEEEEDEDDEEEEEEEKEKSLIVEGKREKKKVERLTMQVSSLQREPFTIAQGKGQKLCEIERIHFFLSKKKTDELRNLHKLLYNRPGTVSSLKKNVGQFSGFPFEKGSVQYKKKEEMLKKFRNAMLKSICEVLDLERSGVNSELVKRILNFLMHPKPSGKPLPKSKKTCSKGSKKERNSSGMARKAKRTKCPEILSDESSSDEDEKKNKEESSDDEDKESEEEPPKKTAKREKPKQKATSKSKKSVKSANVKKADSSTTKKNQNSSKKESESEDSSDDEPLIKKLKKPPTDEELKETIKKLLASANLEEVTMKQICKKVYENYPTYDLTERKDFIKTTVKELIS

B1: FLAG-G3BP1^RRM (22Rv1) (domain or fragment, UniProt Q13283 338-466, looked up)
chain: DSHQLFIGNLPHEVDKSELKDFFQSYGNVVELRINSGGKLPNFGFVVFDDSEPVQKVLSNRPIMFRGEVRLNVEEKKTRAAREGDRRDNRLRGPGGPRGGLGGGMRGPPRGGMVQKPGFGVGRGLAPRQ
notes: also called FLAG-RRM; G3BP1^RRM-RGG; source: 22Rv1, transfected, in cells or lysate
B2: His-SPOP protein (affinity-purified) (natural protein, UniProt O43791 1-374, looked up)
chain: MSRVPSPPPPAEMSSGPVAESWCYTQIKVVKFSYMWTINNFSFCREEMGEVIKSSTFSSGANDKLKWCLRVNPKGLDEESKDYLSLYLLLVSCPKSEVRAKFKFSILNAKGEETKAMESQRAYRFVQGKDWGFKKFIRRDFLLDEANGLLPDDKLTLFCEVSVVQDSVNISGQNTMNMVKVPECRLADELGGLWENSRFTDCCLCVAGQEFQAHKAILAARSPVFSAMFEHEMEESKKNRVEINDVEPEVFKEMMCFIYTGKAPNLDKMADDLLAAADKYALERLKVMCEDALCSNLSVENAAEILILADLHSADQLKTQAVDFINYHASDVLETSGWKSMVVSHPHLVAEAYRSLASAQCPFLGPPRKRLKQS
notes: SPOP, recombinant His-tagged protein

Key:
[1] = target: T2, Speckle-type POZ protein (SPOP), endogenous in 22Rv1 cells (human (endogenous in 22Rv1), UniProt O43791 1-374); experiment: proximity ligation; 22Rv1 cells transfected with FLAG-G3BP1 constructs; Duolink II kit, antibodies against FLAG-M2 and SPOP (endogenous); percentage of cells with signal; conditions: partners not purified
T2 construct: SPOP, endogenous protein of human 22Rv1 prostate cancer cells; also called endogenous SPOP; source: endogenous, 22Rv1 lysate or cells

[2] = target: T3, His G3BP1 protein (affinity-purified) (UniProt Q13283 1-466); experiment: co-IP; in vitro binding assay with affinity-purified proteins: 4 ug His-SPOP with 0.125, 0.25 or 0.75 ug His G3BP1 in 1 ml pulldown buffer, 4 C, 60 min, then 0.56 ug Myc-DEK; IP with anti-SPOP and protein G agarose; wash 50 mM Tris pH 7.5, 200 mM NaCl; conditions: both partners purified
T3 construct: G3BP1, recombinant His-tagged protein

[3] = target: T1, Myc-DEK protein (affinity-purified); experiment: as above; conditions: both partners purified

| Binder | percentage of cells with PLA positive signal [1] [%] | binding result [2] | binding result [3] |
| --- | --- | --- | --- |
| B1 | 70 |  |  |
| B2 |  | binds | binds |
